# Test results reported in IntAct's records for PubMed 15618422.
# B1: BTB/POZ and MATH domain-containing protein 1 (Arabidopsis thaliana (Mouse-ear cress)), Q8L765 (parent)
# chain: MGTTRVCSEVSSGSSKSLSQSLTVSTSTTETVNGFHEFKICGYSLAKGVGVGKYVASDTFMVGGYSWAIYFYPDGKSPEDNSSYVSLFIALASEGADVRALFELTLVDQSGNGKHKVHSHFGRALDSGPYTLKYRGSMWGYKRFFRRSSLESSDYLKENSLLVRCRVGVVKSVTEGPRYYNIPVPVSNLGQQLGNLLESGKGCDVVFQVDGETFNAHKLVLATRSPVFNAQLFGPLGDRNTKCITIEDMEAPIFKVLLHFIYWDELPDMQELIGTDSTLASTLVAQHLLAAADRYALERLKAICESKLCEGVAINTVATTLALAEQHHCLQLKAVCLKFVALPENLKAVMQTDGFDYLKESCPSLLTELLQYVARLSEHSVIVSGHRKEIFADGCDASGRRVKPRLH
# partner: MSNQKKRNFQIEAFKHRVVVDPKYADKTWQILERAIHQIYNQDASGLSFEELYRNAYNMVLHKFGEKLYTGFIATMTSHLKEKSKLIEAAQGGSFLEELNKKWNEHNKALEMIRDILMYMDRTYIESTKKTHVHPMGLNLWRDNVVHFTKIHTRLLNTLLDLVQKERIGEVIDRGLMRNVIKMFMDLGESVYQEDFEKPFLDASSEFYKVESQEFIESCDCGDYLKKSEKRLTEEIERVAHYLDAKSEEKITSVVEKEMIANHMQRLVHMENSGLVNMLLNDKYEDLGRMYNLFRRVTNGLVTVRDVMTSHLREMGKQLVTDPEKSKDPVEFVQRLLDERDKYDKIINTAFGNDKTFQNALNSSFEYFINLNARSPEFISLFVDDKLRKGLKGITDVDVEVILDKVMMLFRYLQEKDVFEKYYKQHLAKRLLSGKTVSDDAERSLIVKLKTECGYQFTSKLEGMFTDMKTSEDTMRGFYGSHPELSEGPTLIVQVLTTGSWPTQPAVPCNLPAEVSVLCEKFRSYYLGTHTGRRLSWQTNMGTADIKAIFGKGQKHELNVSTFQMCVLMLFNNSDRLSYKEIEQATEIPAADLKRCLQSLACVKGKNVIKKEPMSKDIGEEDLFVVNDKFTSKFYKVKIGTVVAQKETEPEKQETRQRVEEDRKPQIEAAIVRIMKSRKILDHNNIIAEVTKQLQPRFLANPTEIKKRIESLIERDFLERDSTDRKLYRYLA
# B2: Cullin-3A (Arabidopsis thaliana (Mouse-ear cress)), Q9ZVH4 (parent)
# chain: B1 partner
# partner: B1 chain
# Variants of: B1
# Conditions: with cul3a_arath CUL3A, Q9ZVH4
row,effect of a mutation on the interaction,Variant
1,decreasing interaction,D204A
2,decreasing interaction,Y295A
3,decreasing interaction,D293A

# Variants of: B2
# Conditions: with bpm1_arath BPM1, Q8L765
row,effect of a mutation on the interaction,Variant
1,decreasing interaction,S48A;F49A
